B1: rC-Agy4z8, soluble 95-kD COOH-terminal fragment of rat agrin, y4 z8 (ligand, UniProt P25304-5 1153-1951, looked up)
chain: AATGTTAAMATARATTVSRLPASSVTPRVYPSHTSRPVGRTTAPPTTRRPPTTATNMDRPRTPGHQQPSKSCDSQPCLHGGTCQDQDSGKGFTCSCTAGRGGSVCEKVQPPSMPAFKGHSFLAFPTLRAYHTLRLALEFRALETEGLLLYNGNARGKDFLALALLDGRVQFRFDTGSGPAVLTSLVPVEPGRWHRLELSRHWRQGTLSVDGETPVVGESPSGTDGLNLDTNLYVGGIPEEQVAMVLDRTSVGVGLKGCIRMLDINNQQLELSDWQRAAVQSSGVGECGDHPCLPNPCHGGALCQALEAGMFLCQCPPGRFGPTCADEKSPCQPNPCHGAAPCRVLSSGGAKCECPLGRSGTFCQTVLETAGSRPFLADFNGFSYLELKGLHTFERDLGEKMALEMVFLARGPSGLLLYNGQKTDGKGDFVSLALHNRHLEFCYDLGKGAAVIRSKEPIALGTWVRVFLERNGRKGALQVGDGPRVLGESPKSRKVPHTMLNLKEPLYIGGAPDFSKLARGAAVSSGFSGVIQLVSLRGHQLLTQEHVLRAVDVSPFADHPCTQALGNPCLNGGSCVPREATYECLCPGGFSGLHCEKGLVEKSVGDLETLAFDGRTYIEYLNAVIESPETLDSRALFSEKALQSNHFELSLRTEATQGLVLWIGKAAERADYMALAIVDGHLQLSYDLGSQPVVLRSTVKVNTNRWLRIRAHREHREGSLQVGNEAPVTGSSPLGATQLDTDGALWLGGLQKLPVGQALPKAYGTGFVGCLRDVVVGHRQLHLLEDAVTKPELRPCPTP
notes: domain: soluble 95-kD COOH-terminal fragment; Harvested in medium conditioned by transiently transfected COS-7 cells; concentration only estimated; also called Rat C-Ag4,8; rC-Ag95y4z8
B2: C-Ag20z8, 20-kD COOH-terminal fragment of mouse agrin, z8 splice variant (ligand, not shown: small tags and cut ends)
chain: MDPRTYIEYLNAVTESELTNEIPAEKALQSNHFELTLRTEATQGWLVLWIGKAAERADYMALAIVDGHLQLSYDLASQPVVLRSTVKVNTNRWLRVRAHREHREGSLQVGNEAPVTSSSPLGATQLDTDGALWLGGLQKLPVGQPLPKAYGTGFVGCLRNVVGHRQLHLLEDAVTKPELRPCPTLNSKLGPEQKLISEEDLNSAVDHHHHHH
B3: C-Ag20z0, 20-kD COOH-terminal fragment of mouse agrin, z0 splice variant (ligand, not shown: small tags and cut ends)
chain: MDPRTYIEYLNAVTESEKALQSNHFELTLRTEATQGWLVLWIGKAAERADYMALAIVDGHLQLSYDLASQPVVLRSTVKVNTNRWLRVRAHREHREGSLQVGNEAPVTSSSPLGATQLDTDGALWLGGLQKLPVGQPLPKAYGTGFVGCLRNVVGHRQLHLLEDAVTKPELRPCPTLNSKLGPEQKLISEEDLNSAVDHHHHHH
B4: C-Ag15, 15-kD COOH-terminal fragment of mouse agrin (37 amino acids deleted from the NH2 terminus of C-Ag20) (ligand, not shown: small tags and cut ends)
chain: MDPWIGKAAERADYMALAIVDGHLQLSYDLASQPVVLRSTVKVNTNRWLRVRAHREHREGSLQVGNEAPVTSSSPLGATQLDTDGALWLGGLQKLPVGQPLPKAYGTGFVGCLRNVVGHRQLHLLEDAVTKPELRPCPTLNSKLGPEQKLISEEDLNSAVDHHHHHH

Key:
[1] = biological target: T1, α3 subunit of the Na+/K+-ATPase, endogenous on mouse cells (cortical neurons, cortical slices, cardiac … (mouse, UniProt Q6PIC6 1-1013)); assay: competition against C-Ag20z8 on live cortical neurons, NIH Image analysis of immunofluorescence; competitor C-Ag20z8
T1 construct: whole, on cells; On cells it stands in the pump with its other subunits, which are not specified; also called α3Na+/K+-ATPase; neuronal receptor for agrin

[2] = biological target: T1, α3 subunit of the Na+/K+-ATPase, …; assay: cell-based or functional assay

Binder	reduction of labeling (mean pixel intensity) at a 1:1 molar ratio [1] [%]	EC50 of c-fos induction (Fos in situ enzyme-linked immunoassay, cortical cultures) [2] [pM]	glutamate-induced Fos expression of agrin-deficient neurons grown 2 d in 5 nM fragment [2] [fold]	IC50 of inhibition of c-fos induction by 50 pM C-Ag95z8 (cortical cultures, single-site competition model) [2] [pM]
B1	~30	–	–	–
B2	–	11.2	2.2	–
B3	–	13.3	2.2	–
B4	–	–	–	64.5
